Measured values published in publication PMC11162425.

Target: Lcl C-terminal domain (Lcl-CTD, residues 252 to 401) (Legionella pneumophila strain 130b)
Assay: SEC-MALS

## Lcl C-terminal domain (Lcl-CTD, residues 252 to 401) (domain or fragment)
  stoichiometry N: 3
